The results in this text go back to publication PMC9974412.

The experiment has as its target HIV-1 Env, strain HXB2 (HIV-1) (UniProt P04578).

For 5-Helix (designed binder), the IC50 of neutralisation of HXB2 Env-pseudotyped lentivirus, HOS-CD4-CCR5 cells was 8.2 nM.
